From the supplement of paper PMC6757056
± gives the standard deviation of the averaged measurements.

B1: library; a variant is named by its letters at N, in order (parent)
chain: GCUGUCACCGGUGCUUGGUACGUUAUAUUCAGCCGGUCUGAUGAGUCUNNNNNNAGACGAAACAGC

Key:
(6R,S)-folinic acid [1] = variants of: B1; assay: normalized RNA/DNA level without ligand (relative to sTRSVctl = 100) (log10 (% of sTRSVctl)); HEK293T overexpressing SLC46A1; higher = less ribozyme self-cleavage, higher mRNA level; settings: without (6R,S)-folinic acid; ligand present: no
Summary of the method: (§1)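 HEK293T cells received ligand, where used, 1 h before being transfected with 4 µg per 6-well well of library plasmids encoding reporter-linked ribozyme switches. After 72 h, RNA was extracted with EDTA and sequenced. RNA level was derived from RNA reads per DNA read, normalized to a spiked-in non-cleaving sequence or the top sequences, then scaled and log-transformed. Values were ×100 then log10, the top set was 25 sequences, and the minimum was 100 DNA reads.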

(6R,S)-folinic acid [2] = variants of: B1; assay: normalized RNA/DNA level with ligand (relative to sTRSVctl = 100) (log10 (% of sTRSVctl)); HEK293T overexpressing SLC46A1; ligand concentration (+) RNA-Seq: 6 mM; higher = less ribozyme self-cleavage, higher mRNA level; settings: with (6R,S)-folinic acid; ligand present: yes
Summary of the method: as §1

Row | Variant | normalized RNA/DNA level without ligand (log10) ((6R,S)-folinic acid [1]) | normalized RNA/DNA level with ligand (log10) ((6R,S)-folinic acid [2])
1 | AAUUAA | 1.95 ± 0.021 | 1.98 ± 0.025
2 | AAUUAG | 1.94 ± 0.0025 | 2.01 ± 0.027
3 | AAUUAU | 1.983 ± 0.013 | 2.03 ± 0.038
4 | UAUUCC | 1.972 ± 0.0012 | 1.986 ± 0.0039
5 | UAUUCU | 1.99 ± 0.039 | 2.04 ± 0.048
6 | UAUUCA | 2.019 ± 0.0067 | 2.05 ± 0.037
7 | UAUUCG | 1.735 ± 0.0046 | 1.94 ± 0.063
8 | GAGGUC | 2.038 ± 0.01 | 2.04 ± 0.052
9 | CAUAAG | 1.95 ± 0.035 | 2.03 ± 0.035
10 | GAUCUG | 2.008 ± 0.013 | 2.032 ± 0.0047
11 | GAUCUA | 2.03 ± 0.024 | 2.027 ± 0.02
12 | GAUCUU | 2.031 ± 0.0082 | 2.02 ± 0.083
13 | GAUCUC | 2.0583 ± 0.00073 | 1.99 ± 0.035
14 | CAUAUA | 1.954 ± 0.019 | 1.97 ± 0.036
15 | CAUACG | 1.987 ± 0.0082 | 2 ± 0.023
16 | CAUACC | 2.027 ± 0.004 | 2.03 ± 0.029
17 | CAUACU | 2.01 ± 0.018 | 2.03 ± 0.051
18 | CAUACA | 2.001 ± 0.0091 | 1.98 ± 0.048
19 | GAUUGC | 1.974 ± 0.015 | 2 ± 0.036
20 | GAUUGG | 1.973 ± 0.017 | 2.028 ± 0.019

Row | Variant | normalized RNA/DNA level without ligand (log10) ((6R,S)-folinic acid [1]) | normalized RNA/DNA level with ligand (log10) ((6R,S)-folinic acid [2])
21 | CAUGAG | 1.942 ± 0.0092 | 2.006 ± 0.0049
22 | CAUGAU | 1.97 ± 0.02 | 1.997 ± 0.012
23 | CAUGAC | 1.98 ± 0.024 | 2 ± 0.012
24 | GAGUCG | 1.984 ± 0.019 | 2 ± 0.034
25 | GAGUCU | 2.0246 ± 0.001 | 2.02 ± 0.027
26 | GAGGGC | 1.956 ± 0.011 | 2.04 ± 0.042
27 | GAGGGG | 2.007 ± 0.018 | 2.04 ± 0.051
28 | GAUGGG | 1.941 ± 0.0096 | 2.043 ± 0.019
29 | GAUGGA | 1.987 ± 0.0081 | 2.02 ± 0.043
30 | GAGUAU | 1.982 ± 0.0044 | 2.014 ± 0.02
31 | AAGGCU | 1.995 ± 0.011 | 2.019 ± 0.0048
32 | AAGGCG | 1.9326 ± 0.0006 | 2.03 ± 0.036
33 | AAGGCA | 2.007 ± 0.0039 | 2.04 ± 0.022
34 | AAUCAA | 1.973 ± 0.014 | 1.9902 ± 0.00064
35 | AAUCAU | 1.961 ± 0.0057 | 1.992 ± 0.011
36 | AAUCAC | 2.008 ± 0.0074 | 2 ± 0.024
37 | GAUAAG | 1.917 ± 0.0057 | 2 ± 0.033
38 | UAUUGC | 1.941 ± 0.011 | 1.96 ± 0.034
39 | GAUAUU | 2.005 ± 0.0061 | 2.02 ± 0.041
40 | GAUAUC | 2.02 ± 0.018 | 2.03 ± 0.036

Row | Variant | normalized RNA/DNA level without ligand (log10) ((6R,S)-folinic acid [1]) | normalized RNA/DNA level with ligand (log10) ((6R,S)-folinic acid [2])
41 | UAGCUG | 1.9 ± 0.021 | 2.026 ± 0.016
42 | UAGCUA | 1.9994 ± 0.0013 | 2.03 ± 0.048
43 | UAGCUC | 2.08 ± 0.017 | 2.0396 ± 0.002
44 | UAGCUU | 2.001 ± 0.012 | 2.02 ± 0.029
45 | CAGGCA | 2.022 ± 0.019 | 2.009 ± 0.0063
46 | CAGGCC | 2.06 ± 0.046 | 2.02 ± 0.049
47 | CAGGCG | 2.02 ± 0.023 | 2.03 ± 0.029
48 | CAUCCC | 2.063 ± 0.0042 | 2.041 ± 0.011
49 | CAUCCG | 2.083 ± 0.013 | 2.05 ± 0.028
50 | CAUCCA | 2.028 ± 0.006 | 1.99 ± 0.036
51 | CAUCCU | 2.06 ± 0.013 | 2.08 ± 0.058
52 | UAUGCA | 1.95 ± 0.027 | 2.01 ± 0.021
53 | UAUGCC | 1.995 ± 0.0025 | 1.99 ± 0.04
54 | CAUUGG | 1.955 ± 0.011 | 2.01 ± 0.026
55 | CAUUGA | 2.019 ± 0.0027 | 2.01 ± 0.055
56 | CAUUGC | 2.021 ± 0.0021 | 1.99 ± 0.019
57 | UAGGGC | 2.01 ± 0.0043 | 2.02 ± 0.03
58 | UAGUGA | 1.8778 ± 0.0018 | 2 ± 0.025
